Reference: patent publication US8604172B2, “Humanized antibody compositions and methods for binding lysophosphatidic acid” (Lpath, Inc., priority 2009, dated 2013)

Legend:
[1] = Competition ELISA specificity, competitor C1P; assay type: binding; conditions: maximum inhibition, n = 3
Protocol: (§1) The specificity of the anti-LPA mAbs was assessed for their binding to LPA related biolipids such as distearoyl-phosphatidic acid, lysophosphatidylcholine, S1P, ceramide and ceramide-1-phosphate.

IL-8 in Caki-1 cells = assay: LPA-induced IL-8 production in Caki-1 cells; assay type: cell-based, human; conditions: 18:1 LPA (0.2 mM), 0.1-30 μg/mL mAb, 24 h
Protocol: Three anti-LPA mAbs (B3, B7 and B58) were tested for their abilities to reduce in vitro IL-8 production compared to a non-specific antibody (NS). Caki-1 cells were seeded in 96 well plates and grown to confluency. After overnight serum starvation, cells were treated with 18:1 LPA (0.2 mM) with or without anti-LPA mAb B3, B7, B58 or NS (Non-Specific). After 24 h, cultured supernatants of renal cancer cells (Caki-1), treated with or without LPA and in presence of increasing concentrations of the anti-LPA mAbs B3, B7 and B58, were collected and analyzed for IL-8 levels using a commercially available ELISA kit (Human Quantikine Kit, R&D Systems, Minneapolis, Minn.). […] The inhibition of IL-8 release by the anti-LPA mAbs was also observed in other cancerous cell lines such as the pancreatic cell line Panc-1.

[2] = Direct binding ELISA of anti-LPA mAbs to 12:0 LPA
Protocol: The binding of 6 anti-LPA mAbs (B3, B7, B58, A63, B3A6, D22) to 12:0 and 18:1 LPA (0.1 uM) was measured by ELISA. EC50 values were calculated from titration curves using 6 increasing concentrations of purified mAbs (0 to 0.4 ug/ml). EC50 represents the effective antibody concentration with 50% of the maximum binding. Max denotes the maximal binding (expressed as OD450).

[3] = Competition ELISA (18:1 LPA coat), competitor 18:2 LPA; assay type: binding; conditions: maximum inhibition
Protocol: Many isoforms of LPA have been identified to be biologically active and it is preferable that the mAb recognize all of them to some extent to be of therapeutic relevance. The specificity of the anti-LPA mAbs was evaluated utilizing a competition assay in which the competitor lipid was added to the antibody-immobilized lipid mixture.
Competition ELISA assays were performed with the anti-LPA mAbs to assess their specificity. 18:1 LPA was captured on ELISA plates. Each competitor lipid (up to 10 uM) was serially diluted in BSA (1 mg/ml)-PBS and then incubated with the mAbs (3 nM). Mixtures were then transferred to LPA coated wells and the amount of bound antibody was measured with a secondary antibody. Data are normalized to maximum signal (A450) and are expressed as percent inhibition. Assays were performed in triplicate. IC50: Half maximum inhibition concentration; MI: Maximum inhibition (% of binding in the absence of inhibitor); - - -: not estimated because of weak inhibition. A high inhibition result indicates recognition of the competitor lipid by the antibody.

[4] = Competition ELISA specificity, competitor LPC; assay type: binding; conditions: maximum inhibition, n = 3
Protocol: as §1

B1: LT3000: Murine anti-LPA monoclonal antibody clone B7, IgG1k, renamed Lpathomab, also known as LT3000; hybridoma 504B7.1, ATCC PTA-8420 (antibody, V domains shown)
VH: QVQLQQSGAELVRPGTSVKVSCKASGYGFINYLIEWIKQRPGQGLEWIGLINPGSDYTNYNENFKGKATLTADKSSSTAYMHLSSLTSEDSAVYFCARRFGYYGSGNYFDYWGQGTTLTVSS
VL: DVVMTQTPLSLPVSLGDQASISCTSGQSLVHINGNTYLHWYLQKPGQSPKLLIYKVSNLFSGVPDRFSGSGSGTDFTLKISRVEAEDLGVYFCSQSTHFPFTFGTGTKLEIK
MI (%), C1P [1]: 1.0%
IL-8 expression (IL-8 in Caki-1 cells): significantly reduced in a dose-dependent manner
EC50 ([2]; 12:0 LPA 0.1 uM, mAb 0 to 0.4 ug/ml): 0.413 nM
Max (OD450), 12:0 LPA ([2]; maximal binding): 1.395 OD450
MI, 18:2 LPA [3]: 100%
MI (%), LPC [4]: 0%
